Test results taken from PMC8213154, “Replacement of Arg in the conserved N-terminal RLFDQxFG motif affects physico-chemical properties and chaperone-like activity of human small heat shock protein HspB8 (Hsp22)” (PLoS ONE, 2021).

Assays:
[1] = target: the molecule itself; experiment: SEC-MALS; Superdex 200 Increase 10/30; 20 mM Tris/acetate pH 7.6, 150 mM NaCl, 0.1 mM EDTA, 0.1 mM PMSF, 2 mM DTT; 200–250 μg of HspB8 WT or R29A, or 400 μg of Δ28–32 loaded
[2] = target: the molecule itself; experiment: SEC-MALS; Superdex 200 Increase 10/30; buffer D (20 mM Tris/acetate pH 7.6, 150 mM NaCl, 0.1 mM EDTA, 0.1 mM PMSF) without any reducing agents; 200–250 μg of oxidized HspB8Cys loaded

B1: HspB8 R29A mutant (natural protein, human, UniProt Q9UJY1 1-196, looked up)
chain: MADGQMPFSCHYPSRLRRDPFRDSPLSSALLDDGFGMDPFPDDLTASWPDWALPRLSSAWPGTLRSGMVPRGPTATARFGVPAEGRTPPPFPGEPWKVCVNVHSFKPEELMVKTKDGYVEVSGKHEEKQQEGGIVSKNFTKKIQLPAEVDPVTVFASLSPEGLLIIEAPQVPPYSTFGESSFNNELPQDSQEVTCT
notes: human HspB8 (Hsp22), Uniprot Q9UJY1, carrying the R29A mutation; calculated Mw of monomer 21.5 kDa; No tag is named
binding result [1]: binds

B2: oxidized Cys mutant of HspB8 (C10S/C99S/C195S/N138C) (natural protein, human, UniProt Q9UJY1 1-196, looked up)
chain: MADGQMPFSSHYPSRLRRDPFRDSPLSSRLLDDGFGMDPFPDDLTASWPDWALPRLSSAWPGTLRSGMVPRGPTATARFGVPAEGRTPPPFPGEPWKVSVNVHSFKPEELMVKTKDGYVEVSGKHEEKQQEGGIVSKCFTKKIQLPAEVDPVTVFASLSPEGLLIIEAPQVPPYSTFGESSFNNELPQDSQEVTST
modifications: engineered disulfide bridge between the Cys138 residues of two chains (oxidized form)
notes: human HspB8 (Hsp22), Uniprot Q9UJY1, with the C10S/C99S/C195S/N138C amino acid substitutions; calculated Mw of monomer 21.5 kDa; The dimer is covalent (S-S crosslinked) after oxidation; No tag is named; also called HspB8Cys; oxidized HspB8Cys; source: oxidized by overnight dialysis
stoichiometry N [2]: 2

B3: HspB8 Δ28–32 mutant (natural protein, human, UniProt Q9UJY1 1-196, looked up)
chain: MADGQMPFSCHYPSRLRRDPFRDSPLSDGFGMDPFPDDLTASWPDWALPRLSSAWPGTLRSGMVPRGPTATARFGVPAEGRTPPPFPGEPWKVCVNVHSFKPEELMVKTKDGYVEVSGKHEEKQQEGGIVSKNFTKKIQLPAEVDPVTVFASLSPEGLLIIEAPQVPPYSTFGESSFNNELPQDSQEVTCT
notes: human HspB8 (Hsp22), Uniprot Q9UJY1, with the pentapeptide 28SRLLD32 deleted; calculated Mw of monomer 21.0 kDa; Made by PCR from the HspB8 WT cDNA and ligated into pET23 via NdeI and XhoI; No tag is named; also called Δ mutant; deletion mutant of HspB8
stoichiometry N [1]: 2
